Reference: patent US20240376151A1, “STAPLED PEPTIDES AND METHODS THEREOF” (FOG PHARMACEUTICALS, INC., priority 2022, published 2024)

Molecular target: T1, RNF31 PUB domain (Homo sapiens, UniProt Q96EP0)
T1 construct: MBP-TEV (N, cleaved yes); made in house; host or cells: E. coli BL21 (DE3) pLysS
T1 sequence (Q96EP0 1-179): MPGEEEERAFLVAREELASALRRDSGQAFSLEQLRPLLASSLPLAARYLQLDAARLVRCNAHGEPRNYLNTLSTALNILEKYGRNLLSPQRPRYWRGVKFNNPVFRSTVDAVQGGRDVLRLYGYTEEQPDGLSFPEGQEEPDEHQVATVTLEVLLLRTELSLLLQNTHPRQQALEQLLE
Test: Phage Library Screening with NGS, RNF31 PUB domain
Type: binding
Conditions: for Phage library screen NGS readout, Target Concentration 10 / Phage library screen NGS readout, Target Concentration 30 / Phage library screen NGS readout, Target Concentration 100 / Phage library screen NGS readout, Target Concentration 300 / Phage library screen NGS readout, Target Concentration 1000: RNF31 PUB domain clusters C41-C45; for Phage library screen NGS readout, BLANK: clusters C41-C45

[1] = target concentration 1000, first column
[2] = target concentration 1000, second column

Row | Sequence | Phage library screen NGS readout, Target Concentration 10 | Phage library screen NGS readout, Target Concentration 30 | Phage library screen NGS readout, Target Concentration 100 | Phage library screen NGS readout, Target Concentration 300 | Phage library screen NGS readout, Target Concentration 1000 [1] | Phage library screen NGS readout, Target Concentration 1000 [2] | Phage library screen NGS readout, BLANK (column 1 of 5) | Phage library screen NGS readout, BLANK (column 2 of 5) | Phage library screen NGS readout, BLANK (column 3 of 5) | Phage library screen NGS readout, BLANK (column 4 of 5) | Phage library screen NGS readout, BLANK (column 5 of 5)
1 | DPAYEDCADAAMYCDMD | 0 | 0 | 0 | 0 | 11 | 10 | 1 | 0 | 0 | 0 | 0
2 | DPAYDWCLYAAYQCDQN | 0 | 0 | 0 | 6 | 13 | 40 | 0 | 0 | 0 | 0 | 0
3 | DPAWNDCLYAAETCISW | 1 | 1 | 1 | 3 | 11 | 1 | 2 | 1 | 1 | 0 | 0
4 | DPAWMQCMYAAWDCNIE | 0 | 0 | 0 | 4 | 6 | 5 | 0 | 0 | 0 | 0 | 0
5 | DPAEQFCLYAAYDCYSE | 2 | 0 | 0 | 2 | 18 | 9 | 1 | 3 | 1 | 0 | 0
6 | DPAQYQCDIAAQVCSTY | 0 | 0 | 0 | 4 | 12 | 10 | 0 | 0 | 0 | 0 | 0
7 | DPAFHDCQFAAAVCSTY | 0 | 0 | 0 | 3 | 26 | 26 | 0 | 0 | 0 | 0 | 0
8 | DPAWTDCDWAALYCDES | 0 | 0 | 0 | 0 | 8 | 4 | 0 | 0 | 0 | 0 | 0
9 | DPAAEDCHIAAMVCMTY | 0 | 4 | 0 | 12 | 46 | 67 | 0 | 0 | 0 | 0 | 0
10 | DPAHTWCMYAAFDCFES | 1 | 0 | 0 | 1 | 9 | 4 | 1 | 2 | 2 | 0 | 0
11 | DPAYEDCAWAALYCDMT | 0 | 0 | 0 | 10 | 70 | 64 | 0 | 0 | 0 | 0 | 0
12 | DPAFQFCVEAAVACSYY | 0 | 0 | 0 | 6 | 9 | 5 | 0 | 0 | 0 | 0 | 4
13 | DPAWWNCLYAAYECNHA | 1 | 0 | 0 | 3 | 9 | 5 | 0 | 0 | 0 | 2 | 0
14 | DPAYYTCDWAAIYCDYH | 0 | 0 | 0 | 1 | 6 | 6 | 0 | 1 | 0 | 0 | 0
